Data on eleven molecules can be found in patent US11433139B2, “Peptide vaccines against interleukin-31” (Zoetis Services LLC, priority 2018, dated 2022).

Entries after “also recorded” stand apart in the source; their conditions may differ.

The test system of assay [1] is wildtype feline IL-31. Briefly: Indirect ELISA, binding to wildtype feline IL-31. The protocol:
(§1) Mice and dogs were immunized with recombinant canine IL-31 (SEQ ID No. 155) for the purpose of identifying antibodies. Serum antibody titers from immunized animals were determined using an enzyme linked immunosorbent assay (ELISA). Canine or feline IL-31 (50 ng/well) was immobilized to polystyrene microplates and used as a capture antigen. Serum from immunized animals was diluted in phosphate buffered saline with 0.05% tween-20 (PBST). The presence of anti-IL-31 antibodies was detected with an appropriate secondary HRP labeled antibody. Following addition of a chromogenic substrate (SureBlue Reserve TMB 1-Component Microwell Peroxidase Substrate, KPL, Inc., Gaithersburg, Md.) and a ten minute incubation at room temperature (RT) the reaction was stopped with the addition of […] of 0.1 N HCl. The absorbance of each well was determined at an optical density (OD) of 450 nm. Antibodies were selected for their ability to bind canine and feline IL-31 using an ELISA. In some cases, further characterization was performed at the time of selection using an ELISA with a mutant form of the feline IL-31 protein as a capture antigen. Cells producing antibodies with desired binding and inhibitory properties were chosen for sequence analysis of RNA transcripts representing the variable heavy (VH) and variable light (VL) IgG chains.
(§2) For the indirect ELISA method, antibody binding to wildtype and feline IL-31 15H05 mutant proteins was assessed. […] In comparison, the 11E12 antibody bound to the wild-type feline IL-31 and its binding was not impacted by the mutations in the 15H05 epitope region as evidenced by the data in FIG. 4. To confirm binding, biacore analysis was performed using canine, feline, equine, human, feline 15H05 mutant, and feline 11E12 mutant IL-31 proteins as surfaces and a single test concentration of antibody. Similar to ELISA observations, all antibodies tested bound to wildtype feline IL-31. In agreement with the data described above in this section, mouse antibodies 11 E12 and 15H05 both bound to canine and feline IL-31 surfaces. […] From this group of nine fully canine antibodies, only ZIL1 and ZIL9 cross-reacted with equine IL-31. Of note, antibody 15H05 was the only one of all assayed herein that bound to canine, feline, and equine IL-31 indicating some level of epitope conservation across the three species. In contrast, none of the antibodies described herein bound to human IL-31. Additional biacore surfaces were used to verify ELISA observations showing differential binding of antibodies to wildtype feline IL-31 and two proteins with mutations in the 15H05 (15H05 mutant) or 11 E12 (11E12 mutant) epitopes. […] Differing results can be attributed to differences in the two assay methodologies.
(§3) To determine the impact of mAbs 11E12 and 15H05 ability to bind these mutant forms of feline IL-31, an indirect ELISA was run using the mutants directly coated on to an immunoassay plate. […] The minor attenuation of mAb 15H05s binding to the 11E12 mutant is likely due to translational effects of the mutations from movement of the two front helices effecting the 15H05 binding site. The mutations designed to affect mAb 15H05s binding (mutant 15H05) show a complete loss of mAb 1505s ability to bind this IL-31 mutant by ELISA. Unlike the 11E12 mutant, the changes in the random coil recognized by mAb 15H05 (mutant 15H05) had no impact on mAb 11E12 binding further supporting the distinction between the two epitopes (FIG. 6C).

In assay [2] the test system is feline IL-31 15H05 mutant. Briefly: Indirect ELISA, binding to feline IL-31 15H05 mutant. The settings on record: compared with wildtype. The procedure: as §1, §2, §3
A general note: ELISA stands for enzyme-linked immunosorbent assay.

The target of assay [3] is canine IL-31. Briefly: Affinity of anti-IL-31 antibodies by surface plasmon resonance (Biacore), canine IL-31 surface. Particulars: IL-31 conjugated to the surface (FIG. 2). The assay is classed as binding. The protocol:
(§4) The affinity with which candidate mAbs bind canine and feline IL-31 was determined using surface plasmon resonance (SPR) on a Biacore system (Biocore Life Sciences (GE Healthcare), Uppsala, Sweden). To avoid affinity differences associated with differential surface preparation that can occur when immobilizing antibodies to surfaces; a strategy was employed where IL-31 was directly conjugated to the surface. Immobilization was obtained by amine coupling 5 μg/mL IL-31 using N-hydroxysuccinimide (NHS)/1-Ethyl-3-(3-dimethylaminopropyl) carbodiimide (EDC) chemistry. Chips were quenched with ethanolamine and the affinity with which all candidate mAbs bound to the immobilized IL-31 was evaluated. All curves were fit to a 1:1 model. Affinity constants (KD) less than 1×10^−11M (1E-11 M) are below the lower limit of quantitation of detection for the instrument. Results for affinity measurements are described herein.
On the technique in general: In SPR one partner is held on a chip, and binding of the other changes the refractive index at the surface.

In assay [4] the target is feline IL-31. Briefly: Affinity of anti-IL-31 antibodies by surface plasmon resonance (Biacore), feline IL-31 surface. The assay is classed as binding. The settings on record: IL-31 conjugated to the surface (FIG. 2). The procedure: as §4
feline IL-31, sequence (as listed by the source): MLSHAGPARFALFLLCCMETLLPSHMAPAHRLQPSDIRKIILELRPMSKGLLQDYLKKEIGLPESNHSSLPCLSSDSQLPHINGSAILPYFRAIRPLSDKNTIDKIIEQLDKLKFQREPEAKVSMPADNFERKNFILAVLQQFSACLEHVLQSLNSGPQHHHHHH

canine IL-31, sequence (as listed by the source): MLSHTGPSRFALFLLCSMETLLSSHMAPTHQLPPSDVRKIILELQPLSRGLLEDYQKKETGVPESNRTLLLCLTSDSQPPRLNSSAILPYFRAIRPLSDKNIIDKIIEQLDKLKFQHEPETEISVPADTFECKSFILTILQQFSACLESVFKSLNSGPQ
feline IL-31 15H05 mutant, sequence (as listed by the source, change not shown): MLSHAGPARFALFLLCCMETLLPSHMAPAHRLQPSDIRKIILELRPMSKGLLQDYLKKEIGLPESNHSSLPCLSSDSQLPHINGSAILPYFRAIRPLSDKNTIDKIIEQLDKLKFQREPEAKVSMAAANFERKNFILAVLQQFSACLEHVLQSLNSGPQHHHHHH
wildtype feline IL-31, sequence (as listed by the source): as the sequence (as listed by the source, change not shown) above, with A126P, A128D counted along it

B1: ZIL11: fully canine anti IL-31 antibody, VH SEQ ID NO: 87, VL SEQ ID NO: 89 (antibody, listed as Canis familiaris, V domains shown)
VH: EVQLVESGGDLVKPAGSLRLSCVASGFTFRTYVMNWVRQAPGKGLQWVASINGGGSSPTYADAVRGRFTVSRDNAQNSLFLQMNSLRAEDTAVYFCVVSMVGPFDYWGQGTLVTVSS
VL: SSVLTQPPSVSVSLGQTATISCSGESLSNYYAQWFQQKAGQAPVLVIYKDTERPSGIPDRFSGSSSGNTHTLTISGARAEDEADYYCESAVSSDTIVFGGGT
Turning to B1, the “binding to wildtype feline IL-31 (ELISA)” value in assay [1] was “capable of binding”. For the same molecule, in assay [2], the “binding to feline IL-31 15H05 mutant (ELISA)” value is recorded as “binding was impacted”.

B2: Feline 15H05 1.1: felinized 15H05, FEL_15H05_VH1 with FEL_15H05_VL1 (antibody, V domains shown)
VH: QVLLVQSGAEVRTPGASVKIFCKASGYSFTSYTIHWLRQAPAQGLEWMGNINPTSGYTENNQRFKDRLTLTADTSTNTAYMELSSLRSADTAMYYCARWGFKYDGEWSFDVWGAGTTVTVSS
VL: EIQMTQSPSSLSASPGDRVTITCRASQGISIWLSWYQQKPGKVPKLLIYKASNLHIGVPSRFSGSGSGTDFTLTISSLEPEDAATYYCLQSQTYPLTFGGGTKLEIK
Consider B2, for which the “affinity (KD) to canine IL-31” value in assay [3] is given as “neutral to positive impact on affinity”.

B3: Feline 15H05_VH3 mouse VL: heterochimeric antibody, FEL_15H05_VH3 with MU_15H05_VL (antibody, V domains shown)
VH: QVLLVQSGAEVRKPGASVKIFCKASGYSFTSYTIHWLRQAPEQGLEWMGNINPTSGYTENNQRFKDRLTLTADTSTNTAYMELSSLRSADTAMYYCARWGFKYDGEWSFDVWGAGTTVTVSS
VL: DIQMNQSPSSLSASLGDTITVTCRASQGISIWLSWYQQKPGNIPKVLINKASNLHIGVPPRFSGSGSGTHFTLTITSLQPEDIATYYCLQSQTYPLTFGGGTKLEIN
As to B3, the “affinity (KD) to feline IL-31” value in assay [4] is “restored the affinity to feline IL-31 to equivalent or better than the mouse and chimeric forms”. In addition, the “affinity (KD) to canine IL-31” value in assay [3] is listed as “improved affinity”.

B4: Feline 15H05 1.1 FW1_3: FEL_15H05_VH1 with FEL_15H05_VL1_FW1_FW3 (antibody, V domains shown)
VH: QVLLVQSGAEVRTPGASVKIFCKASGYSFTSYTIHWLRQAPAQGLEWMGNINPTSGYTENNQRFKDRLTLTADTSTNTAYMELSSLRSADTAMYYCARWGFKYDGEWSFDVWGAGTTVTVSS
VL: DIQMNQSPSSLSASLGDTITVTCRASQGISIWLSWYQQKPGKVPKLLIYKASNLHIGVPPRFSGSGSGTHFTLTITSLQPEDIATYYCLQSQTYPLTFGGGTKLEIK
In the case of B4, in assay [4], the “affinity (KD) to feline IL-31” value is on record as “good affinity”. Further, in assay [3], the “affinity (KD) to canine IL-31” value is reported as “good affinity”.

B5: Feline 15H05 1.1 FW3: FEL_15H05_VH1 with FEL_15H05_VL1_FW3 (antibody, V domains shown)
VH: QVLLVQSGAEVRTPGASVKIFCKASGYSFTSYTIHWLRQAPAQGLEWMGNINPTSGYTENNQRFKDRLTLTADTSTNTAYMELSSLRSADTAMYYCARWGFKYDGEWSFDVWGAGTTVTVSS
VL: EIQMTQSPSSLSASPGDRVTITCRASQGISIWLSWYQQKPGKVPKLLIYKASNLHIGVPPRFSGSGSGTHFTLTITSLQPEDIATYYCLQSQTYPLTFGGGTKLEIK
B5: in assay [4], the “affinity (KD) to feline IL-31” value is “excellent affinity”. The “affinity (KD) to canine IL-31” value in assay [3] is “excellent affinity”.

B6: Feline 15H05 2.2: felinized 15H05, FEL_15H05_VH2 with FEL_15H05_VL2 (antibody, V domains shown)
VH: QVLLVQSGAEVRTPGASVKIFCKASGYGFTSYTIHWVRQSPAQGLEWMGNINPTSGYTENNQRFKDRLTLTADTSTNTAYMELSSLRSADTAMYYCARWGFKYDGEWSFDVWGAGTTVTVSS
VL: EITMTQSPGSLAGSPGQQVTMNCRASQGISIWLSWYQQKPGQHPKLLIYKASNLHIGVPDRFSGSGSGTDFTLTISNLQAEDVASYYCLQSQTYPLTFGGGTKLEIK
As for B6, the “affinity (KD) to canine IL-31” value in assay [3] is on record as “neutral to positive impact on affinity”.

B7: Feline 15H05 3.2: felinized 15H05, FEL_15H05_VH3 with FEL_15H05_VL2 (antibody, V domains shown)
VH: QVLLVQSGAEVRKPGASVKIFCKASGYSFTSYTIHWLRQAPEQGLEWMGNINPTSGYTENNQRFKDRLTLTADTSTNTAYMELSSLRSADTAMYYCARWGFKYDGEWSFDVWGAGTTVTVSS
VL: EITMTQSPGSLAGSPGQQVTMNCRASQGISIWLSWYQQKPGQHPKLLIYKASNLHIGVPDRFSGSGSGTDFTLTISNLQAEDVASYYCLQSQTYPLTFGGGTKLEIK
With B7, in assay [3], the “affinity (KD) to canine IL-31” value is recorded as “neutral to positive impact on affinity”.

B8: Feline 15H05 1.1 FW2: FEL_15H05_VH1 with FEL_15H05_VL1_FW2 (antibody, V domains shown)
VH: QVLLVQSGAEVRTPGASVKIFCKASGYSFTSYTIHWLRQAPAQGLEWMGNINPTSGYTENNQRFKDRLTLTADTSTNTAYMELSSLRSADTAMYYCARWGFKYDGEWSFDVWGAGTTVTVSS
VL: EIQMTQSPSSLSASPGDRVTITCRASQGISIWLSWYQQKPGNIPKVLINKASNLHIGVPSRFSGSGSGTDFTLTISSLEPEDAATYYCLQSQTYPLTFGGGTKLEIK
Take B8: the “affinity (KD) to feline IL-31” value in assay [4] is on record as “excellent affinity; also recorded: increased affinity”. Moreover, the “affinity (KD) to canine IL-31” value in assay [3] is “excellent affinity; also recorded: increased affinity”.

B9: Feline 15H05 1.1 FW1: FEL_15H05_VH1 with FEL_15H05_VL1_FW1 (antibody, V domains shown)
VH: QVLLVQSGAEVRTPGASVKIFCKASGYSFTSYTIHWLRQAPAQGLEWMGNINPTSGYTENNQRFKDRLTLTADTSTNTAYMELSSLRSADTAMYYCARWGFKYDGEWSFDVWGAGTTVTVSS
VL: DIQMNQSPSSLSASLGDTITVTCRASQGISIWLSWYQQKPGKVPKLLIYKASNLHIGVPSRFSGSGSGTDFTLTISSLEPEDAATYYCLQSQTYPLTFGGGTKLEIK
For the molecule B9, the “affinity (KD) to feline IL-31” value in assay [4] is on record as “detrimental to the affinity”. The “affinity (KD) to canine IL-31” value in assay [3] is “detrimental to the affinity”.

B10: Feline 15H05 1.1_FW1_2: FEL_15H05_VH1 with FEL_15H05_VL1_FW1_FW2 (antibody, V domains shown)
VH: QVLLVQSGAEVRTPGASVKIFCKASGYSFTSYTIHWLRQAPAQGLEWMGNINPTSGYTENNQRFKDRLTLTADTSTNTAYMELSSLRSADTAMYYCARWGFKYDGEWSFDVWGAGTTVTVSS
VL: DIQMNQSPSSLSASLGDTITVTCRASQGISIWLSWYQQKPGNIPKVLINKASNLHIGVPSRFSGSGSGTDFTLTISSLEPEDAATYYCLQSQTYPLTFGGGTKLEIK
For the molecule B10, the “affinity (KD) to feline IL-31” value in assay [4] is on record as “good affinity”. The “affinity (KD) to canine IL-31” value in assay [3] is reported as “good affinity”.

B11: Feline 15H05_VH1 mouse VL: heterochimeric antibody, FEL_15H05_VH1 with MU_15H05_VL (antibody, V domains shown)
VH: QVLLVQSGAEVRTPGASVKIFCKASGYSFTSYTIHWLRQAPAQGLEWMGNINPTSGYTENNQRFKDRLTLTADTSTNTAYMELSSLRSADTAMYYCARWGFKYDGEWSFDVWGAGTTVTVSS
VL: DIQMNQSPSSLSASLGDTITVTCRASQGISIWLSWYQQKPGNIPKVLINKASNLHIGVPPRFSGSGSGTHFTLTITSLQPEDIATYYCLQSQTYPLTFGGGTKLEIN
Consider B11, for which, in assay [4], the “affinity (KD) to feline IL-31” value was “restored the affinity to feline IL-31 to equivalent or better than the mouse and chimeric forms”. Also, the “affinity (KD) to canine IL-31” value in assay [3] is reported as “improved affinity”.
